From article PMC5314801 (Nucleic Acids Research, 2016)
Positions count from the first letter of the chain named. Names may count otherwise.

B1: lasI promoter crystal duplex DNA_F/DNA_R (dsDNA)
DNA 1: AAAAATTATGAAATTTGCATAAATTC
DNA 2: TGAATTTATGCAAATTTCATAATTTT
B2: RsaL (natural protein, Pseudomonas aeruginosa, UniProt Q9X7H4 1-80, looked up)
chain: MASHERTQPQNMAFRAKATRTARRESQETFWSRFGISQSCGSRFENGENLPFPIYLLLHFYIEGQITDRQLADLRGKIRE
B3: RsaL^Q27A (natural protein, Pseudomonas aeruginosa, UniProt Q9X7H4 1-80, looked up)
chain: B2 chain with Q27A
B4: RsaL^R43A (natural protein, Pseudomonas aeruginosa, UniProt Q9X7H4 1-80, looked up)
chain: B2 chain with R43A
B5: RsaL R20A (natural protein, Pseudomonas aeruginosa, UniProt Q9X7H4 1-80, looked up)
chain: B2 chain with R20A
B6: RsaL with Glu45 mutated to Ala (natural protein, Pseudomonas aeruginosa, UniProt Q9X7H4 1-80, looked up)
chain: B2 chain with E45A
B7: RsaL^Q38A (natural protein, Pseudomonas aeruginosa, UniProt Q9X7H4 1-80, looked up)
chain: B2 chain with Q38A

What was measured:
RsaL (crystal) = target: T1, RsaL (crystal) (UniProt Q9X7H4 1-80); experiment: X-ray crystallography
T1 sequence: B2 chain

crystal structure = target: the molecule itself; experiment: crystal structure
SEC = target: the molecule itself; experiment: SEC

Binder	stoichiometry N (SEC)	also measured
B1	–	binding result (RsaL (crystal)): binds
B2	–	binding result (crystal structure): binds
B3	2	–
B4	2	–
B5	2	–
B6	2	–
B7	2	–
